Laboratory results taken from patent US20180282393A1 (IMMATICS BIOTECHNOLOGIES, published 2018).

Target: T1, HLA-A*02:01 (human)
T1 construct: Captured on streptavidin plates and detected with anti-b2m; also called peptide-receptive MHC molecules; MHC class I
Assay: UV-ligand exchange, anti-b2m ELISA; peptide exchange yield grade (+ >=10%, ++ >=20%, +++ >=50, ++++ >=75%)
From the text: Candidate peptides for T cell based therapies according to the present invention were further tested for their MHC binding capacity (affinity). The individual peptide-MHC complexes were produced by UV-ligand exchange, where a UV-sensitive peptide is cleaved upon UV-irradiation, and exchanged with the peptide of interest as analyzed. Only peptide candidates that can effectively bind and stabilize the peptide-receptive MHC molecules prevent dissociation of the MHC complexes. To determine the yield of the exchange reaction, an ELISA was performed based on the detection of the light chain (β2m) of stabilized MHC complexes. The assay was performed as generally described in Rodenko et al. (Rodenko et al., 2006).
96 well MAXISorp plates (NUNC) were coated over night with 2 ug/ml streptavidin in PBS at room temperature, washed 4× and blocked for 1 h at 37° C. in 2% BSA containing blocking buffer. Refolded HLA-A*02:01/MLA-001 monomers served as standards, covering the range of 15-500 ng/ml. Peptide-MHC monomers of the UV-exchange reaction were diluted 100 fold in blocking buffer. Samples were incubated for 1 h at 37° C., washed four times, incubated with 2 ug/ml HRP conjugated anti-β2m for 1 h at 37° C., washed again and detected with TMB solution that is stopped with […]. Absorption was measured at 450 nm. Candidate peptides that show a high exchange yield (preferably higher than 50%, most preferred higher than 75%) are generally preferred for a generation and production of antibodies or fragments thereof, and/or T cell receptors or fragments thereof, as they show sufficient avidity to the MHC molecules and prevent dissociation of the MHC complexes.

Binder	peptide exchange yield
SMHQMLDQTL	20 to 50%
FVLDTSESV	50 to 75%
ATGNDRKEAAENSL	50 to 75%
SLDGTELQL	50 to 75%
YTQPFSHYGQAL	50 to 75%
FLPPAQVTV	20 to 50%
VLAEGGEGV	50 to 75%
FLLDQVQLGL	50 to 75%
VVVTGLTLV	20 to 50%
SLDGFTIQV	20 to 50%
SLSPVILGV	≥ 75%
YVVGGFLYQRL	50 to 75%
STYGGGLSV	50 to 75%
NLMASQPQL	50 to 75%
GLAPNTPGKA	50 to 75%
TQTAVITRI	10 to 20%
LLDEKVQSV	50 to 75%
GLTDVIRDV	≥ 75%
LLRFSQDNA	50 to 75%
PAVLQSSGLYSL	20 to 50%
ASDPILYRPVAV	50 to 75%
LILESIPVV	20 to 50%

Binder	peptide exchange yield
GLDVTSLRPFDL	50 to 75%
VLPKLYVKL	20 to 50%
LLANGVYAA	10 to 20%
LAYTLGVKQL	50 to 75%
LLPPPPPPA	50 to 75%
VLASGFLTV	≥ 75%
KLFGHLTSA	20 to 50%
SMNGGVFAV	20 to 50%
ALVEVTEHV	20 to 50%
ALYEYQPLQI	20 to 50%
SLVSEQLEPA	50 to 75%
MLAEKLLQA	10 to 20%
IVREFLTAL	50 to 75%
LLSGDLIFL	50 to 75%
MISRTPEV	20 to 50%
SLNGNQVTV	10 to 20%
FLLRFSQDNA	20 to 50%
GAIDLLHNV	20 to 50%
KLNDTYVNV	50 to 75%
GLMKDIVGA	50 to 75%
YMLDIFHEV	20 to 50%
GLAFSLYQA	20 to 50%

Binder	peptide exchange yield
GLASRILDA	50 to 75%
SLLDTLREV	50 to 75%
KVVGKDYLL	10 to 20%
TQTTHELTI	50 to 75%
VVMEELLKV	20 to 50%
TASAITPSV	50 to 75%
IAAIRGFLV	50 to 75%
LLFAGTMTV	20 to 50%
VAIGGVDGNVRL	20 to 50%
KLSDSATYL	50 to 75%
MLTELEKAL	20 to 50%
YQDLLNVKM	50 to 75%
NLREGDQLL	50 to 75%
YTAQIGADIAL	50 to 75%
GLESEELEPEEL	20 to 50%
GLAPFLLNAV	50 to 75%
LVRDTQSGSL	20 to 50%
GLLVGSEKVTM	50 to 75%
ALWLPTDSATV	50 to 75%
SLYNLGGSKRISI	≥ 75%
RLPNAGTQV	≥ 75%
SIFEGLLSGV	20 to 50%
